For one substance, PKA-C in the FLAG elution as percent of SMO results are on record in article PMC11322411.

The test addresses GRK2-phosphorylated FLAG-tagged SMOOTHENED (near-full-length mouse SMO, residues 64-674) (mouse) (UniProt P56726). As to the kind of experiment: pull-down; purified FLAG-SMO forms (18.2 uM) mixed with PKA-C (10 uM), captured on anti-FLAG M1 sepharose beads, 4°C 2 h; 20 mM HEPES pH 7.5, 150 mM NaCl, 3 mM CaCl2, 10 mM MgCl2, 1 mM ATP, 0.025% GDN, 1 uM SAG21k; eluted with FLAG peptide and EDTA; stain-free SDS-PAGE, densitometry.
Chain of UniProt P56726 (P56726 64-674): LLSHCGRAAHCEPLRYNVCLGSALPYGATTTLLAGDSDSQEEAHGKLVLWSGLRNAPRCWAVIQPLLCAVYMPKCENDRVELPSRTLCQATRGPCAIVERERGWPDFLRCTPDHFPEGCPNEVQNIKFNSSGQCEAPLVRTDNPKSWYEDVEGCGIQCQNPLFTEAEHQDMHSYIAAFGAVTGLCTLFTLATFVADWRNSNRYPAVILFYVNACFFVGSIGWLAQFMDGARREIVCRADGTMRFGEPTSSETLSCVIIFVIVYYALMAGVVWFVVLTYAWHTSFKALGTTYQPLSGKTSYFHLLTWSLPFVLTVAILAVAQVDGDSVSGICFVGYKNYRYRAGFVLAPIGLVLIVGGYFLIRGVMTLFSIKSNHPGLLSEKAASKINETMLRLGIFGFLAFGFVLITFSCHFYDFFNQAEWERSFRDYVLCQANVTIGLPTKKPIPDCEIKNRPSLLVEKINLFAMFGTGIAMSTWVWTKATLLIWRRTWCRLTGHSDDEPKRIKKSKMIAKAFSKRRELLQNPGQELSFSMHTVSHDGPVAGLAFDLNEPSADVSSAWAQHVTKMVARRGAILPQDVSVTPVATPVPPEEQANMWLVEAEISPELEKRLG

The substance “protein kinase A catalytic subunit (PKA-C), mouse (from UniProt P05132 1-351) (enzyme)” registered a PKA-C in the FLAG elution as percent of SMO of 25%.
